Source: EP4786492A1 (Simcere Zaiming Pharmaceutical Co., Ltd., dated 2026)
Numbering of substitutions follows the chain as printed.

T1: mouse DLL3 on CHO K1-mDLL3 cells (mouse, UniProt O88516 33-490)
T1 construct: also called mouse DLL3 recombinant cell line
T1 sequence: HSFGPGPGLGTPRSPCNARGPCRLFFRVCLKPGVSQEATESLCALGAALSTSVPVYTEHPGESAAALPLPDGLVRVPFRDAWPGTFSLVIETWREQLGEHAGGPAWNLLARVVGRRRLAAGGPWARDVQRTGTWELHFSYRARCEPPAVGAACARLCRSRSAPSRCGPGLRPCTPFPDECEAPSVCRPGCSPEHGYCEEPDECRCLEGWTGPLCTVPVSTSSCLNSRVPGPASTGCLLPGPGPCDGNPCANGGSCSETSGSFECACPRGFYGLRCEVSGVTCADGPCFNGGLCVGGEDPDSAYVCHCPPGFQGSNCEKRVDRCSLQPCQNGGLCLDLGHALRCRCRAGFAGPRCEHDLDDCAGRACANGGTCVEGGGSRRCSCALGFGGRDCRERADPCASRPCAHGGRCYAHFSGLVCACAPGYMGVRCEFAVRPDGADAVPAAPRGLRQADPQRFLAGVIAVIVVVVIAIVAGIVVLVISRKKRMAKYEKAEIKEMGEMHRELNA

T2: human DLL3-his protein (human, UniProt Q9NYJ7 27-492)
T2 construct: also called human DLL3 protein; DLL3 antigen protein; not shown: His tag
T2 sequence: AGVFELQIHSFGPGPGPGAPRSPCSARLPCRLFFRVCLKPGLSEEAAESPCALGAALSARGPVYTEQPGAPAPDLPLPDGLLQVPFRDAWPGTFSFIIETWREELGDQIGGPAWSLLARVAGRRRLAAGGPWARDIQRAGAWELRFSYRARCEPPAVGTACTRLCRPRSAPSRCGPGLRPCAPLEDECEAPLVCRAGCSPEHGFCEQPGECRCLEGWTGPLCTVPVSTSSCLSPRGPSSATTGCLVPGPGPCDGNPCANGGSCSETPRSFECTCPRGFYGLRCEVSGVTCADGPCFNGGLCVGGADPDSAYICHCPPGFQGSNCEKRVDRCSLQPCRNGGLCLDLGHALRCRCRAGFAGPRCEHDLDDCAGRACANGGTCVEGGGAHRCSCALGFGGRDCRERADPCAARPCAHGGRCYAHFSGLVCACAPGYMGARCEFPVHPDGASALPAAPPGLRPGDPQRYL

T3: human DLL3 on CHO-K1 hDLL3 cells (human, UniProt Q9NYJ7 27-492)
T3 construct: also called human DLL3 recombinant cell line
T3 sequence: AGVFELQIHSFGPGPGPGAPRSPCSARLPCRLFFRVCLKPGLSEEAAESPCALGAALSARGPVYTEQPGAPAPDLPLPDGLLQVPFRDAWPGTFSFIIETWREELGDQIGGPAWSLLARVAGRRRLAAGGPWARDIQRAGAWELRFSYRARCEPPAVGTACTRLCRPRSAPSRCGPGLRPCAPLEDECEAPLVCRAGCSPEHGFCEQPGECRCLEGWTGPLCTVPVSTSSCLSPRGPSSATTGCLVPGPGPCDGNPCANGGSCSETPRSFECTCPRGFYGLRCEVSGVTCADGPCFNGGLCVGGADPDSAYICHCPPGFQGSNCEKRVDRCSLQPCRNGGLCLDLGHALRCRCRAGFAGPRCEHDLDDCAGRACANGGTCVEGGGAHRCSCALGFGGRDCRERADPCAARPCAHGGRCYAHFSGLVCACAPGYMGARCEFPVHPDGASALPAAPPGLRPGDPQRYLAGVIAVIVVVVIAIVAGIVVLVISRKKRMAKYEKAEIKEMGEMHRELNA

T4: monkey DLL3 on CHO K1-cyno DLL3 cells (cynomolgus monkey)
T4 construct: also called monkey DLL3 recombinant cell line
T4 chain: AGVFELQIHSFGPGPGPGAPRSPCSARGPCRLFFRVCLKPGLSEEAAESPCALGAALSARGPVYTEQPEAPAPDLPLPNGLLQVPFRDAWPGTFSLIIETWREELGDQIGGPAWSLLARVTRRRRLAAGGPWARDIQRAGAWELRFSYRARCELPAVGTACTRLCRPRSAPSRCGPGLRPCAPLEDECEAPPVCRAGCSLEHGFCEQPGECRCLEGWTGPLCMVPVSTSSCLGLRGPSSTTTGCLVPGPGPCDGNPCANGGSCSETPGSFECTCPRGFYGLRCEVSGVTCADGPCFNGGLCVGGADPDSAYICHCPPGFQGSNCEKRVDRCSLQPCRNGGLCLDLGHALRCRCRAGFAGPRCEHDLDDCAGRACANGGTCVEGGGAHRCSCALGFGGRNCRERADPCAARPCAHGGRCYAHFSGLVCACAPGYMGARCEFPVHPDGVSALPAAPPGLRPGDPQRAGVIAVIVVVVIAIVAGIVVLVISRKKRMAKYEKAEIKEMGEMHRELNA

T5: human DLL3 endogenously expressed on SHP77 and NCI-H82 cells (human, UniProt Q9NYJ7 27-618)
T5 construct: whole, on cells; cells endogenously expressing DLL3; also called SHP77 cells; SHP-77 cells
T5 sequence (looked up): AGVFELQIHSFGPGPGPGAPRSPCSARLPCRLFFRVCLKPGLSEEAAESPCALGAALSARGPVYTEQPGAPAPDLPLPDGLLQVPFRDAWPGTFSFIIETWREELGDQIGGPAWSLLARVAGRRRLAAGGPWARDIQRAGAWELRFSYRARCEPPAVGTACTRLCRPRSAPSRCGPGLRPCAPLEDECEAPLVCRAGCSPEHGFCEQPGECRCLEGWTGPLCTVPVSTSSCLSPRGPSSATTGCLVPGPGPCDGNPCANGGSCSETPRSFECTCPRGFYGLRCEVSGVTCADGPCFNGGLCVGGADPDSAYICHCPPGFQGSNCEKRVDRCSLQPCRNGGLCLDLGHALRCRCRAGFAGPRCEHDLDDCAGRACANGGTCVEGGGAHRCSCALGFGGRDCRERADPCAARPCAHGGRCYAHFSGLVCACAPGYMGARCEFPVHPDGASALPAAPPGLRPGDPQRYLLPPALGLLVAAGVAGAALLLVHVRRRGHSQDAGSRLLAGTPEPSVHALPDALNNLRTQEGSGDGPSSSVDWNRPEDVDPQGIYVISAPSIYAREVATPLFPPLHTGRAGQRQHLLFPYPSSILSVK

B1: Hab006VL1VH4-hFc (Fc fusion)
scFv (part 1 of 2): DIQMTQSPSSLSASVGDRVTITCRATKSISKYLAWYQQKPGKAPKLLIFSGSTLQSGVPSRFSGSGSGTDFTLTISSLQPEDFATYYCQQHHEYPYTFGGGTKVEIK
scFv (part 2 of 2): EVQLVQSGAEVKKPGASVKVSCKASGYTFTSYWMHWVRQAPGQRLEWMGVIDPSDSLANYNQEFKGRVTLTVDTSSSTAYMELSSLRSEDTAVYYCARDSTVVAPMDYWGQGTTVTVSS
notes: humanized mab006, VL-linker-VH-human IgG1 Fc; also called Hab006VL1VL4-hFc; not shown: linker; human IgG1 Fc fragment
B2: Hab006VL4VH1-hFc (Fc fusion)
scFv (part 1 of 2): DIVMTQSPDSLAVSLGERATINCRATKSISKYLAWYQQKPGQTNKLLIFSGSTLQSGVPDRFSGSGSGTDFTLTISSLQAEDVAVYYCQQHHEYPYTFGGGTKVEIK
scFv (part 2 of 2): B1 scFv (part 2 of 2) with L70I, S76A
notes: humanized mab006, VL-linker-VH-human IgG1 Fc; also called Hab006VL4VL1-hFc; not shown: linker; human IgG1 Fc fragment
B3: Hab006VL4VH2-hFc (Fc fusion)
scFv (part 1 of 2): B2 scFv (part 1 of 2)
scFv (part 2 of 2): B1 scFv (part 2 of 2) with S76A
notes: humanized mab006, VL-linker-VH-human IgG1 Fc; also called Hab006VL4VL2-hFc; not shown: linker; human IgG1 Fc fragment
B4: Hab013VL2VH2a-hFc (Fc fusion)
scFv (part 1 of 2): EIVLTQSPATLSLSPGERATLSCRASKSVSTSGFSYMHWYQQKPGQPPRLLIYLASNLESGIPARFSGSGSGTDFTLTISSLEPEDFAVYYCQHSRELPFTFGQGTKLEIK
scFv (part 2 of 2): EVQLVQSGAEVKKPGSSVKVSCKASGYAFSNYWINWVRQAPGQGLEWMGQINPGDGDTIYNSKFKGRVTITADKSTSTAYMELSSLRSEDTAVYYCEREGRNYGDFAYWGQGTTVTVSS
notes: humanized mab013, VL-linker-VH-human IgG1 Fc; not shown: linker; human IgG1 Fc fragment
B5: Hab009VL1aVH1-hFc (Fc fusion)
scFv (part 1 of 2): DIVMTQSPLSLPVTPGEPASISCRASQTISDYLHWYLQKPGQSPQLLIKYASQSISGVPDRFSGSGSGSDFTLKISRVEAEDVGVYYCQQGHSFPLTFGQGTKLEIK
scFv (part 2 of 2): EVQLVQSGAEVKKPGASVKVSCKASGYTFTSYWMHWVRQAPGQRLEWMGTIYPGNSDTRYNQKFKDRVTITADTSASTAYMELSSLRSEDTAVYYCTRSYDYGDLDYWGQGTTVTVSS
notes: humanized mab009, VL-linker-VH-human IgG1 Fc; not shown: linker; human IgG1 Fc fragment
B6: Hab009VL2aVH1-hFc (Fc fusion)
scFv (part 1 of 2): B5 scFv (part 1 of 2) with Q45R, S69T
scFv (part 2 of 2): B5 scFv (part 2 of 2)
notes: as for B5
B7: Hab009VL3aVH1-hFc (Fc fusion)
scFv (part 1 of 2): B5 scFv (part 1 of 2) with P40S, G41H, S69T
scFv (part 2 of 2): B5 scFv (part 2 of 2)
notes: as for B5
B8: Hab014VL1VH2-hFc (Fc fusion)
scFv (part 1 of 2): DIQMTQSPSSLSASVGDRVTITCKASEDIYNRLAWYQQKPGKVPKLLISGATSLETGVPSRFSGSGSGTDFTLTISSLQPEDVATYYCQQYWSLPWTFGGGTKVEIK
scFv (part 2 of 2): EVQLVQSGAEVKKPGASVKVSCKASGYTFTDYYMNWVRQAPGQRLEWMGDINPNHGDTGYNQKFTGRVTLTVDKSASTAYMELSSLRSEDTAVYYCARNFFYYGTTYGWYFDVWGQGTTVTVSS
notes: humanized mab014, VL-linker-VH-human IgG1 Fc; not shown: linker; human IgG1 Fc fragment
B9: Hab014VL2VH1-hFc (Fc fusion)
scFv (part 1 of 2): B8 scFv (part 1 of 2) with T69K
scFv (part 2 of 2): B8 scFv (part 2 of 2) with L70I
notes: as for B8
B10: mab010 scFv-hFc (Fc fusion)
scFv (part 1 of 2): DIQMTQSPASLSVSVGETVTITCRASENINSNLAWYQQKQGKSPQLLVYAATNLADGVPSRFSGSGSGTQFSLKISGLQSEDFGSYYCQHFWGLPWTFGGGTKLEIR
scFv (part 2 of 2): QVQLQQSGAELARPGASMKLSCKASGYTFTSYGISWVKQITGQGLEWIGEIFPRSGNTYDNENFRGKATLTADKSSSTAYLEVRSLTSEDSAVYFCARTTVFAPYYFDYWGQGTTLTVSS
notes: human-murine chimeric scFv-hFc, VL-linker-VH-human IgG1 Fc; not shown: linker; Fc fragment of human IgG1
B11: mab015 scFv-hFc (Fc fusion)
scFv (part 1 of 2): NIVMTQSPKSMSMSVGERVTLSCKASENVGTYVSWFQQKPEQSPKLLIYGASNRYTGVPDRFTGSGSATDFTLTISSVQAEDLADYHCGQFYSFPCTFGGGTKLEIK
scFv (part 2 of 2): EVKLEESGGGLVQPGGSMKLSCVASGITFSNFWMNWVRQSPEKGLEWVAQIRLKSDDYATHYAESVKGRFTISRDDSKGSVYLQMNNLRTEDTGIHYCTTGYYFDYWGQGTTLTVSS
notes: as for B10
B12: mab009 scFv-hFc (Fc fusion)
scFv (part 1 of 2): DIVMTQSPATLSVTPGDRVSLSCRASQTISDYLHWYQQRSHESPRLLIKYASQSISGIPSRFSGSGSGSDFTLSINSVEPEDVGVYYCQNGHSFPLTFGAGTKLELK
scFv (part 2 of 2): EVQLQQSGTVLARPGASVKMSCKTSGYTFTSYWMHWVKQSPGQGLEWIGTIYPGNSDTRYNQKFKDKAYVTAVTSASTAYMELSSLTNEESAVYYCTRSYDYGDLDYWGQGTTLTVSS
notes: as for B10

These binders were tested against T1, mouse DLL3 on CHO K1-mDLL3 cells (assay: FACS, CHO K1-mDLL3 cells).

binding result | Binder
binds | B1
binds | B2
binds | B3
binds | B4
binds | B5
binds | B6
binds | B7
binds | B8
binds | B9

These binders were tested against T2, human DLL3-his protein (assay: ELISA).

binding result | Binder
binds | B10
binds | B1
binds | B2
binds | B3
binds | B4
binds | B5
binds | B6
binds | B7
binds | B11
binds | B12
binds | B8
binds | B9

The binders below were run against T3, human DLL3 on CHO-K1 hDLL3 cells (assay: FACS, CHO-K1 hDLL3 cells).

binding result | Binder
binds | B1
binds | B2
binds | B3
binds | B4
binds | B5
binds | B6
binds | B7
binds | B8
binds | B9

Target: T4, monkey DLL3 on CHO K1-cyno DLL3 cells
Experiment: FACS, CHO K1-cyno DLL3 cells

binding result | Binder
binds | B10
binds | B1
binds | B2
binds | B3
binds | B5
binds | B6
binds | B7
binds | B11
binds | B8
binds | B9

What follows are binders tested against T5, human DLL3 endogenously expressed on … (assay: FACS, SHP77 and NCI-H82 cells).

binding result | Binder
binds | B1
binds | B2
binds | B3
binds | B4
binds | B5
binds | B6
binds | B7
binds | B8
binds | B9
